Measurements as given in patent publication US20170052184A1 (published 2017).

T1: HCV bt-134-154 (Peptide 1, HCVc 134-154) (Hepatitis C virus (numbering per HCV-1), biotin (carboxy-terminal per; N-terminal per))
T1 peptide: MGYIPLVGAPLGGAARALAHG

T2: HCV bt-141-161 (Peptide 2, HCVc 141-161) (Hepatitis C virus (numbering per HCV-1), biotin (carboxy-terminal per; N-terminal per))
T2 peptide: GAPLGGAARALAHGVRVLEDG

T3: HCV bt-151-171 (Peptide 3, HCVc 151-171) (Hepatitis C virus (numbering per HCV-1), biotin (carboxy-terminal per; N-terminal per))
T3 peptide: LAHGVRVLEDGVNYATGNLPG


Legend:
Assay in all cases: EIA, captured mAb + biotin peptide
[1] = molecular target: T1, HCV bt-134-154 (Peptide 1, HCVc 134-154)
[2] = molecular target: T2, HCV bt-141-161 (Peptide 2, HCVc 141-161)
[3] = molecular target: T3, HCV bt-151-171 (Peptide 3, HCVc 151-171)

Row | Binder | Reactivity (OD 492 nm) [1] | Reactivity (OD 492 nm) [2] | Reactivity (OD 492 nm) [3]
1 | HCV 208A-422 (antibody, V domains shown) VH: DVQLQESGPGLVNPSQSLSLTCSVTGYSITSGYYWIWIQQSPGNKLEWMGYIKYDGGNNYSPSLKNRISIARDTSKNQCFLKLNSVTIEDTATYYCTRGSDSFDYWGQGTTLTVSS VL: DIVLTQSPASLAVSLGQRAIISCKASQSVSFAGTNLMHWYQQKPGQQPKLLIYRASNLETGVPTRFSGSGSRTDFTLNIHPVEEDDAATYYCQQSREYYTFGGGTKLEIKR | 0.05 OD units | 0.84 OD units | 0.1 OD units
2 | HCV 208A-442 (antibody, V domains shown) VH: DVQLQESGPGLVNPSQSLSLTCSVTGYSITSGYYWIWIRQFPGNKLEWMGYIKYDGGNNYSPSLKNRISIARDTSKNQFFLKLNSVTIEDTATYYCTRGSDSFDYWGQGTTLTVSS VL: DIVLTQSPASLAVSLGQRAIISCKASQSVSFAGTNLMHWYQQKPGQQPKLLIYRASNLETGVPTRFSGSGSRTDFTLNIHPVEEDDAATYYCQQSREYYTFGGGTKLEIKR | 0.08 OD units | 3.04 OD units | 0.06 OD units
3 | HCV 208A-877 (antibody, V domains shown) VH: QLQQSGPELVKPGASVKISCKTSGYTFTENAMHWVKQSRGKSLEWIGGVNPNNGDTVYTQKFKGKATLTVAKSSSTAYMELRTMTCEESTVYYCASREPDFFDYWGQGSSVTVSS VL: QIVLTQSPAIMSVSPGEKVSMTCSASSSVTYMHWYQQKSGTSPKRWIYDTSELASGVPARFSGSGSGTTYSLTISSMEAEDAATYYCQQWSNKPLTFGAGTKLELKR | 0.06 OD units | 1.21 OD units | 0.05 OD units
4 | HCV 208A-638 (antibody, V domains shown) VH: QGQLQQPGAEFVKPGASLKLSCRASGYTFTSYWIHWVKQRPGQGLEWIGEVDPSDSYINQNEKFRGKATLTVDKSSSTAYMQLGSLTSEDSAVYYCARHYYGVLDSWGQGTALTVSS VL: QIVLTQSPTIMSASLGERVTMTCTASSSVSSSYLHWFQQKPGSSPKLWIYSTSNLASGVPPRFSGSGSGTSYSLSISSVEAEDVATYYCLQFHRSPWTFGGGAKLEIKR | 0.07 OD units | 2.96 OD units | 0.09 OD units
5 | HCV 208B-589 (antibody, V domains shown) VH: QVQLQQSGAGLAKPGASVKMSCKASGYTFTANKMHWAKQRPGQGLEWIGYIDPSSGYTEYNHKIQDKATLTADTSSSTAYMQLSSLTFEDSAVYYCTNFAYWGQGTLVTVSA VL: DIVMTQTPLTLSVTIGQPASISCKSSQSLLFTNGKTYLNWFLQRPGQSPKRLIYLLSKLDSGVPDRFSGSGSGTDFTLKISRVEAEDLGVYYCLQSTYFPLTFGAGTKLELKR | 0.27 OD units | 0.1 OD units | 2.85 OD units
6 | HCV 208B-189 (antibody, V domains shown) VH: QVHLQQSGAELAKPGASVQMSCKASGYTFTANKMHWARQRPRQGLEWIGYIDPASGYTEYNQKIKDRATLTADKSSSTAYMQLSSLTSEDSAVYYCTNFAYWGQGTLVTVST VL: not shown | 0.55 OD units | 0.15 OD units | 3.95 OD units
7 | HCV 208B-560 (antibody, V domains shown) VH: EVQLQQSGPELEKPGASVKISCKTSGYTFTEYAMHWVKQSHGMSLEWIGGINPSNGNAIYNQIFKDKATLTVDRSSSTAYMGLRSLTFGDSGVYFCVRRQLDFFDYWGQGASLTVSS VL: DIVVTQSPASLAVSLGQRATISCRASQSVSTSRYSYLHWYQQKPGQPPKLLIKYASNLESGVPARFSGSGSGTDFTLNIHPVGEEDTATYYCQHSWEFPFTFGSGTKLEIKR | 0.11 OD units | 3.9 OD units | 0.14 OD units
8 | HCV 208A-830 (antibody, V domains shown) VH: EVRLQQPGPEVEKPGASVKISCKTSGYTFTEYAIHWVKQSHGESLEWIGGINPSNGDPIYNQIFKDKATLTVDRSSNTAYMGLRSLTVGDSGVYFCVRRQLDYFDFWGQGASLTVSS VL: DIVLTQSPASLAVSLGQRATISCRSSQSVSTSRYSYLHWYQQKPGQPPKLLIKYASNLESGVPARFSGSGSGTDFTLNIHPVGEEDPATYYCQHSWEFPFTFGSGTKLEIKR | 0.07 OD units | 2.88 OD units | 0.08 OD units
9 | HCV 208A-222 (antibody, V domains shown) VH: EVQLQQSGPELEKPGASVRISCKTSGYTFTEYAMHWVKQSHGKSLEWIGGINPNNGNAIYNQIFKDKATLTVDRSSSTAYMGLRSLTFGDSGVYFCVRRQLDYFDYWGQGASLTVSS VL: DIVVTQSPASLAVSLGQRATISCRASQSVSTSRYSYLHWYQQKPGQPPKLLIKYASNLESGVPARFSGSGSGTDFTLNIHPVGEEDTATYYCQHSWEFPFTFGSGTKLEIKR | 0.06 OD units | 2.7 OD units | 0.08 OD units
10 | HCV 208A-605 (antibody, V domains shown) VH: EVQLQQSGPELEKPGASVKISCKTSGYTFTEYAIHWVKQSHGMSLEWIGGINPSNGNAIYNQIFKDKATLTVDRSSSTAYMGLRSLTFGDSGVYFCVRRQLDFFDYWGQGASLTVSS VL: DIVVTQSPASLAVSLGQRATISCRASQSVSTSRYSYLHWYQQKPGQPPKLLIKYASNLESGVPARFSGSGSGTDFTLNIHPVGEEDTATYYCQHSWEFPFTFGSGTKLEIKR | 0.22 OD units | 3.71 OD units | 0.16 OD units
11 | HCV 208B-178 (antibody, V domains shown) VH: DVKLVESGGGLVKLGGSLKLSCAASGFTFSSYYMSWVRQTPEKRLELVAAINSNGGSTYYPDTVKGRFTISRDNAKNTLYLQMSSLKSEDTALYYCARHGGLGRRDWYFDVWGAGTTVTVSS VL: DIVLTQSPASLAVSLGQRATISCRASESVDNYGISFMHWYQQKPGQPPKLLIYRASNLESGIPARFSGSGSRTDFTLTINPVETDDVATYYCQQSNKDPFTFGSGAKLEIKR | 0.1 OD units | 0.07 OD units | 1.69 OD units
12 | HCV 208B-174 (antibody, V domains shown) VH: EVKLEESGGGLVQPGGSMKLSCVASGFSFSSYWMSWVRQSPEKGLDWVAEIRLRSDNYATHYAESVKGRFTISRDDSISRLYLQMNTLRAEDTGIYYCTWMTYWGQGTLVTVSA VL: QNVLTQSPAIMSASPGEKVTMSCSASSSVTYMFWYQLKPESSPRLLIYDTSNLASGVPVRFSGSGSGTSYSLTISRMEAEDAATYYCQEWSSYPLTFGAGTKLDLKR | 0.08 OD units | 1.26 OD units | 0.07 OD units
13 | HCV 208A-874 (antibody, V domains shown) VH: QVQLQQPGAELVKPGASVKLSCKASGYTLSSYWMHWVKQRPGQGLEWIGEIHPSDSYTSYNQKFKDKATLTVDKSSSTAYMQLSSLTSEDSAVYYCARGGYYRYDEFAYWGQGTLVTVSA VL: DIVMTQSHKFMSTSIGDRVSITCKASQNVSPAVAWYQQKPGQSPKLLIYSASSRYTGVPDRFTGSGSGTAFTFTISSVQAEDLAVYFCQQHFSTPWTFGGGTMLEIKR | 0.05 OD units | 0.73 OD units | 0.06 OD units
14 | HCV 208A-983 (antibody, V domains shown) VH: QGQMQQSGAELVKPGASVKLSCKTSGFTFSSSYFSWLKQKPGQSLEWIAWIYAGTGNTIYNQKFTDKAQLTVDTASSTAFMQLSSLTIEDSAIYYCAISGTGFTYWGQGTLVTVSA VL: DVLMTQTPLSLPVNLGDQASISCRSSQSLLHSNGNTYLEWFLQKPGQSPKLLIYNVSNRFSGVPDRFSGSGSGTDFTLKISRVEAEDLGVYYCFQGSHVPFTFGSGTKLAIKR | 3.03 OD units | 0.4 OD units | 0.05 OD units
15 | HCV 208A-134 (antibody, V domains shown) VH: QGQMQQSGAELAKPGASVKLSCKTSGFTFSSSYISWLKQKPGQSLEWIAWIYAGTGNTNYNQKFTDKAQLTVDTSSSTAYMQLSSLTTEDSAIYYCAISGTGFTYWGQGTLVTVSA VL: EVLMTQSPLSLPVSLGDQASISCRSSQSLEHTNGNTYLEWFLQRPGQPPKLLIYKVSSRFSGVPDRFSGSGSGTDFTLKISRVEAEDLGVYYCFQGSHVPFTFGSGTKLAIKR | 2.06 OD units | 0.08 OD units | 0.06 OD units
16 | HCV 208B-1024 (antibody, V domains shown) VH: EVQLVESGGDLVKPGGSLKLSCAASGFTFSNYGMSWVRQTPDKRLEWVATISSGGSYSYYPDSVKGRFTISRDNAKNILYLQMSSLKSEDTAMYYCASLYYGYGDYWGQGTAFTVSS VL: DVLMTQTPLSLPVSLGDQASISCRSSQSIVHSNGNTYLEWYLQKLGQSPKLLIYRVSNRFSGVPDRFSGSGSGTDFTLKISRVEAEDLGVYYCFQGSHVPWTFGGGTKLEIKR | 0.08 OD units | 0.75 OD units | 0.15 OD units
17 | HCV 208A-557 (antibody, V domains shown) VH: QGQMQQSGAELVKPGASVKLSCKTSGFTFSSSYISWLKQKPGQSLEWIAWIYAGTGNTNYNQKFTDKAQLTVDTSSSTAYMQLSSLTTEDSAIYYCAISGTGFTYWGQGTLVTVSA VL: DIALTQSPASLAVSLGQRATISCRASQSVSTSRYSYMHWYQQKPGQPPELLIKYASNLESGVPARFSGSGSGTDFTLNIHPVGEEDTATYYCQHSWDFPFTFGSGTKLEIKR | 0.05 OD units | 2.41 OD units | 0.06 OD units
18 | HCV 208B-281 (antibody, V domains shown) VH: QGQLQQSGAELVKPGASVKLSCKTSGFTFSSSYISWLKQRPGQSLEWIAWIYAGTGGTNYNQKFTDKAQLTVDTSSSTAYMQFSSLTTEDSAIYYCAISGTGFIYWGQGTLVTVSA VL: DVLMTQTPLSLPVSLGDQASISCRSSQSLVHNNGNTYLEWFLQKPGQSPKLLIYKVSNRFSGVPDRFSGSGSGTDFTLKISRVEAEDLGVYYCFQGSHVPFTFGSGTKLEIKR | 1.48 OD units | 0.16 OD units | 0.12 OD units
